Measured values published in US20170066831A1 (Janssen / Centocor, published 2017).

T1: cynomolgus (Macaca fascicularis) ST2L extracellular domain with C-terminal His6 tag (Macaca fascicularis (cynomolgus), UniProt Q01638 19-321 (human entry))
T1 construct: also called cyno ST2L-ECD; cynoST2L-ECD
T1 chain: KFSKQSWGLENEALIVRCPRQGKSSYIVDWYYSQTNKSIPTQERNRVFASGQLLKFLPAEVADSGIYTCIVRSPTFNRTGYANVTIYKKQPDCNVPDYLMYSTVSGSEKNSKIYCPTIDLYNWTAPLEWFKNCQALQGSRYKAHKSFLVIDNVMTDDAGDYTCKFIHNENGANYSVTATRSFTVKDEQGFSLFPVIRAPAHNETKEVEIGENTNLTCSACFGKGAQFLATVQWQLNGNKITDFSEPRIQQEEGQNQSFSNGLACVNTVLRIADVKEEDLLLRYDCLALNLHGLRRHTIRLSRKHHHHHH

T2: human ST2L extracellular domain with C-terminal His6 tag (human, UniProt Q01638 19-328)
T2 construct: also called huST2L-ECD; ST2L-ECD
T2 sequence: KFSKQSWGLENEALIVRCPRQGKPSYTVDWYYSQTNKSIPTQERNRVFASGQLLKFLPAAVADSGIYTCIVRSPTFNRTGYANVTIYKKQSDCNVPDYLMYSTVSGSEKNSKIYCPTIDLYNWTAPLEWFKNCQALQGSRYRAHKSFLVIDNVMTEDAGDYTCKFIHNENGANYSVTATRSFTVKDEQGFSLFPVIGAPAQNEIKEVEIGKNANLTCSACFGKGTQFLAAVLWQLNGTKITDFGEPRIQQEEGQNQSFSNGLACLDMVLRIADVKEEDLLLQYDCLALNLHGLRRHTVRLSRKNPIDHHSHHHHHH


How the values were obtained:
[1] = biological target: T1, cynomolgus (Macaca fascicularis) ST2L …; assay: ProteOn SPR, mAb captured, ST2L-ECD in solution
Procedure: (§1) The affinities were analyzed by ProteOn. The experiments were performed at 25° C. using ProteOn's PBS-T-E buffer (PBS, 0.005% P20 and 3 mM EDTA) as running buffer. […] Mab capture was followed by injection of ST2L-ECD from 0.024-15 nM (5-fold dilutions) for 4 min (200 μL at 50 μL/min). The dissociation was monitored for 30 minutes for all reaction. Regeneration was performed using two 15 sec pulses of 10 mM glycine pH1.5. The data was fitted to a 1:1 with baseline drift model.
(§2) Association rates for the samples are fast, the langmuir with mass transfer model was used for curve fitting and estimation of Affinity. All of the samples had faster off rates than the parental clone and control Mab. The difference in off rate was the primary contributor to the lower affinity of the HFA variants when compared to the parent antibody.

[2] = biological target: T2, human ST2L extracellular domain with …; assay: ProteOn SPR, mAb captured, ST2L-ECD in solution
Procedure: as §1, §2

Binder | Kd [1] | koff [1] | kon [1] | Kd [2] | koff [2] | kon [2]
STLM203 (antibody, V domains shown, C2494 HFA mAb: VH STLH194 + VL STLL274 (O12)) VH: EVQLVQSGAEVKKPGATVKISCKVSAFNIKDDYMHWVQQAPGKGLEWMGRIDPAIGNTEYAEKFQGRVTITADTSTDTAYMELSSLRSEDTAVYYCATGDFYAMDYWGQGTLVTVSS VL: DIQMTQSPSSLSASVGDRVTITCITNTDIDDVIHWYQQKPGKAPKLLIYEGNTLRPGVPSRFSGSGSGTDFTLTISSLQPEDFATYYCLQSDNMLTFGQGTKLEIK | 0.111 nM | 0.00656 s⁻¹ | 5.88e+07 M⁻¹ s⁻¹ | 0.0473 nM | 0.000967 s⁻¹ | 2.04e+07 M⁻¹ s⁻¹
STLM190 (antibody, V domains shown, C2494 HFA mAb: VH STLH195 + VL STLL277 (L8)) VH: QVQLVQSGAEVKKPGASVKVSCKVSAFNIKDDYMHWVRQAPGKGLEWMGRIDPAIGNTEYAPKFQDRVTMTEDTSTDTAYMELSSLRSEDTAVYYCATGDFYAMDYWGQGTLVTVSS VL: DIQLTQSPSFLSASVGDRVTITCITNTDIDDVIHWYQQKPGKAPKLLIYEGNTLRPGVPSRFSGSGSGTEFTLTISSLQPEDFATYYCLQSDNMLTFGQGTKLEIK | 1.02 nM | 0.102 s⁻¹ | 1e+08 M⁻¹ s⁻¹ | 0.534 nM | 0.0534 s⁻¹ | 1e+08 M⁻¹ s⁻¹
STLM195 (antibody, V domains shown, C2494 HFA mAb: VH STLH195 + VL STLL272 (O18)) VH: QVQLVQSGAEVKKPGASVKVSCKVSAFNIKDDYMHWVRQAPGKGLEWMGRIDPAIGNTEYAPKFQDRVTMTEDTSTDTAYMELSSLRSEDTAVYYCATGDFYAMDYWGQGTLVTVSS VL: DIQMTQSPSSLSASVGDRVTITCITNTDIDDVIHWYQQKPGKAPKLLIYEGNTLRPGVPSRFSGSGSGTDFTFTISSLQPEDIATYYCLQSDNMLTFGQGTKLEIK | 0.719 nM | 0.0719 s⁻¹ | 1e+08 M⁻¹ s⁻¹ | 0.271 nM | 0.00673 s⁻¹ | 2.49e+07 M⁻¹ s⁻¹
STLM187 (antibody, V domains shown, C2494 HFA mAb: VH STLH195 (IGHV1-24*01) + VL STLL280 (O12b)) VH: QVQLVQSGAEVKKPGASVKVSCKVSAFNIKDDYMHWVRQAPGKGLEWMGRIDPAIGNTEYAPKFQDRVTMTEDTSTDTAYMELSSLRSEDTAVYYCATGDFYAMDYWGQGTLVTVSS VL: DIQMTQSPSSLSASVGDRVTITCITNTDIDDVIHWYQQKPGKAPKLLIYEGNTLRPGVPSRFSGSGSGTDFTLTISSLQPEDFATYYCLQSDNLLTFGQGTKLEIK | 1.1 nM | 0.11 s⁻¹ | 1e+08 M⁻¹ s⁻¹ | 0.473 nM | 0.0159 s⁻¹ | 3.37e+07 M⁻¹ s⁻¹
STLM197 (antibody, V domains shown, C2494 HFA mAb: VH STLH194 (IGHV1-f*01) + VL STLL280 (O12b)) VH: EVQLVQSGAEVKKPGATVKISCKVSAFNIKDDYMHWVQQAPGKGLEWMGRIDPAIGNTEYAEKFQGRVTITADTSTDTAYMELSSLRSEDTAVYYCATGDFYAMDYWGQGTLVTVSS VL: DIQMTQSPSSLSASVGDRVTITCITNTDIDDVIHWYQQKPGKAPKLLIYEGNTLRPGVPSRFSGSGSGTDFTLTISSLQPEDFATYYCLQSDNLLTFGQGTKLEIK | 0.232 nM | 0.00688 s⁻¹ | 2.97e+07 M⁻¹ s⁻¹ | 0.0885 nM | 0.00162 s⁻¹ | 1.83e+07 M⁻¹ s⁻¹

Further binders by falling Kd [1], results first:

Kd [1] | koff [1] | kon [1] | Kd [2] | koff [2] | kon [2] | Binder
1.9 nM | 0.19 s⁻¹ | 1e+08 M⁻¹ s⁻¹ | 0.703 nM | 0.0703 s⁻¹ | 1e+08 M⁻¹ s⁻¹ | STLM194 (antibody, V domains shown, C2494 HFA mAb: VH STLH195 + VL STLL273 (A20)) VH: QVQLVQSGAEVKKPGASVKVSCKVSAFNIKDDYMHWVRQAPGKGLEWMGRIDPAIGNTEYAPKFQDRVTMTEDTSTDTAYMELSSLRSEDTAVYYCATGDFYAMDYWGQGTLVTVSS VL: DIQMTQSPSSLSASVGDRVTITCITNTDIDDVIHWYQQKPGKVPKLLIYEGNTLRPGVPSRFSGSGSGTDFTLTISSLQPEDVATYYCLQSDNMLTFGQGTKLEIK
0.999 nM | 0.0999 s⁻¹ | 1e+08 M⁻¹ s⁻¹ | 0.42 nM | 0.00885 s⁻¹ | 2.11e+07 M⁻¹ s⁻¹ | STLM192 (antibody, V domains shown, C2494 HFA mAb: VH STLH195 + VL STLL275 (L5)) VH: QVQLVQSGAEVKKPGASVKVSCKVSAFNIKDDYMHWVRQAPGKGLEWMGRIDPAIGNTEYAPKFQDRVTMTEDTSTDTAYMELSSLRSEDTAVYYCATGDFYAMDYWGQGTLVTVSS VL: DIQMTQSPSSVSASVGDRVTITCITNTDIDDVIHWYQQKPGKAPKLLIYEGNTLRPGVPSRFSGSGSGTDFTLTISSLQPEDFATYYCLQSDNMLTFGQGTKLEIK
0.932 nM | 0.0932 s⁻¹ | 1e+08 M⁻¹ s⁻¹ | 0.267 nM | 0.0127 s⁻¹ | 4.77e+07 M⁻¹ s⁻¹ | STLM193 (antibody, V domains shown, C2494 HFA mAb: VH STLH195 + VL STLL274 (O12)) VH: QVQLVQSGAEVKKPGASVKVSCKVSAFNIKDDYMHWVRQAPGKGLEWMGRIDPAIGNTEYAPKFQDRVTMTEDTSTDTAYMELSSLRSEDTAVYYCATGDFYAMDYWGQGTLVTVSS VL: DIQMTQSPSSLSASVGDRVTITCITNTDIDDVIHWYQQKPGKAPKLLIYEGNTLRPGVPSRFSGSGSGTDFTLTISSLQPEDFATYYCLQSDNMLTFGQGTKLEIK
0.666 nM | 0.0666 s⁻¹ | 1e+08 M⁻¹ s⁻¹ | 0.292 nM | 0.0247 s⁻¹ | 8.46e+07 M⁻¹ s⁻¹ | STLM191 (antibody, V domains shown, C2494 HFA mAb: VH STLH195 + VL STLL276 (L12)) VH: QVQLVQSGAEVKKPGASVKVSCKVSAFNIKDDYMHWVRQAPGKGLEWMGRIDPAIGNTEYAPKFQDRVTMTEDTSTDTAYMELSSLRSEDTAVYYCATGDFYAMDYWGQGTLVTVSS VL: DIQMTQSPSTLSASVGDRVTITCITNTDIDDVIHWYQQKPGKAPKLLIYEGNTLRPGVPSRFSGSGSGTEFTLTISSLQPDDFATYYCLQSDNMLTFGQGTKLEIK
0.205 nM | 0.0205 s⁻¹ | 1e+08 M⁻¹ s⁻¹ | 0.0813 nM | 0.00241 s⁻¹ | 2.97e+07 M⁻¹ s⁻¹ | STLM204 (antibody, V domains shown, C2494 HFA mAb: VH STLH194 + VL STLL273 (A20)) VH: EVQLVQSGAEVKKPGATVKISCKVSAFNIKDDYMHWVQQAPGKGLEWMGRIDPAIGNTEYAEKFQGRVTITADTSTDTAYMELSSLRSEDTAVYYCATGDFYAMDYWGQGTLVTVSS VL: DIQMTQSPSSLSASVGDRVTITCITNTDIDDVIHWYQQKPGKVPKLLIYEGNTLRPGVPSRFSGSGSGTDFTLTISSLQPEDVATYYCLQSDNMLTFGQGTKLEIK
0.134 nM | 0.0104 s⁻¹ | 7.75e+07 M⁻¹ s⁻¹ | 0.0529 nM | 0.00119 s⁻¹ | 2.24e+07 M⁻¹ s⁻¹ | STLM202 (antibody, V domains shown, C2494 HFA mAb: VH STLH194 + VL STLL275 (L5)) VH: EVQLVQSGAEVKKPGATVKISCKVSAFNIKDDYMHWVQQAPGKGLEWMGRIDPAIGNTEYAEKFQGRVTITADTSTDTAYMELSSLRSEDTAVYYCATGDFYAMDYWGQGTLVTVSS VL: DIQMTQSPSSVSASVGDRVTITCITNTDIDDVIHWYQQKPGKAPKLLIYEGNTLRPGVPSRFSGSGSGTDFTLTISSLQPEDFATYYCLQSDNMLTFGQGTKLEIK
0.134 nM | 0.011 s⁻¹ | 8.23e+07 M⁻¹ s⁻¹ | 0.0608 nM | 0.00143 s⁻¹ | 2.35e+07 M⁻¹ s⁻¹ | STLM200 (antibody, V domains shown, C2494 HFA mAb: VH STLH194 + VL STLL277 (L8)) VH: EVQLVQSGAEVKKPGATVKISCKVSAFNIKDDYMHWVQQAPGKGLEWMGRIDPAIGNTEYAEKFQGRVTITADTSTDTAYMELSSLRSEDTAVYYCATGDFYAMDYWGQGTLVTVSS VL: DIQLTQSPSFLSASVGDRVTITCITNTDIDDVIHWYQQKPGKAPKLLIYEGNTLRPGVPSRFSGSGSGTEFTLTISSLQPEDFATYYCLQSDNMLTFGQGTKLEIK
0.116 nM | 0.0041 s⁻¹ | 3.55e+07 M⁻¹ s⁻¹ | 0.0484 nM | 0.000852 s⁻¹ | 1.76e+07 M⁻¹ s⁻¹ | STLM201 (antibody, V domains shown, C2494 HFA mAb: VH STLH194 + VL STLL276 (L12)) VH: EVQLVQSGAEVKKPGATVKISCKVSAFNIKDDYMHWVQQAPGKGLEWMGRIDPAIGNTEYAEKFQGRVTITADTSTDTAYMELSSLRSEDTAVYYCATGDFYAMDYWGQGTLVTVSS VL: DIQMTQSPSTLSASVGDRVTITCITNTDIDDVIHWYQQKPGKAPKLLIYEGNTLRPGVPSRFSGSGSGTEFTLTISSLQPDDFATYYCLQSDNMLTFGQGTKLEIK
